Assay results published in US11278600B2, “Human alpha-galactosidase variants” (Codexis, Inc., priority 2014, dated 2022).

Columns and labels:
Assay type in all cases: biochemical
[1] = HTP-analysis of supernatants pretreated with acid (MUGal hydrolysis); conditions: challenge at pH 4.2; activity of the variant/activity of Rd2BB (SEQ ID NO: 10); yeast culture supernatant
Outline: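 MUGal hydrolysis was tracked by fluorescence (Ex 355 nm, Em 448 nm) after a 30-180 min reaction at 37° C. in pH 4.8 McIlvaine/citrate buffer, stopped with 1 M sodium carbonate. Beforehand, yeast (INVSc1) culture supernatants carrying GLA variants were held 1-3 h at 37° C. in acidic McIlvaine buffer, pH 3.3-4.3.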

[2] = HTP-analysis of yeast culture supernatants, no challenge (MUGal hydrolysis); conditions: activity of the variant/activity of Rd2BB (SEQ ID NO: 10), yeast culture supernatant
Outline: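 GLA variants expressed in yeast INVSc1, secreted into SD-Ura broth over 66-84 h at 30° C; clarified supernatants tested without challenge. Supernatant mixed with McIlvaine buffer pH 4.8 and 2 mM MUGal (citrate/KCl, pH 4.6), 37° C for 30-180 min, carbonate-quenched, fluorescence Ex 355/Em 448 nm.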

[3] = HTP-analysis of supernatants pretreated with base (MUGal hydrolysis); conditions: challenge at pH 7.6; activity of the variant/activity of Rd2BB (SEQ ID NO: 10); yeast culture supernatant
Outline: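 GLA variants were secreted by transformed INVSc1 yeast grown 66-84 h at 30° C. Supernatants were exposed to neutral-to-basic buffers (pH 7.0-9.7) at 37° C for 1-18 h, then assayed with MUGal in acidic citrate/McIlvaine buffer, with fluorescence read after quenching.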

[4] = HTP-analysis of supernatants pretreated with bovine serum (MUGal hydrolysis); conditions: activity of the variant/activity of Rd2BB (SEQ ID NO: 10), yeast culture supernatant
Outline: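 Yeast INVSc1 culture supernatants containing secreted GLA variants were mixed with bovine serum (20:80) and held 1 h at 37° C. Serum-treated samples then reacted with MUGal (4 mM stock) in citrate/McIlvaine buffer (pH 4.3/4.8) for 180 min at 37° C., were quenched with sodium carbonate, and read by fluorescence (Ex 355, Em 448 nm).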

| Molecule | Relative Activity of GLA Variants After Challenge at pH 4.2 [1] | Relative Activity of GLA Variants After No Challenge (NC) [2] | Relative Activity of GLA Variants After Challenge at pH 7.6 [3] | Relative Activity of GLA Variants After Challenge with Serum [4] |
| --- | --- | --- | --- | --- |
| 275 (protein, Synthetic Polypeptide sequence of Variant No. 275 of mature Human GLA) LDNGLARTPTMGWLHWERFMCNLDCQEEPDSCISEKLFMEMAERMVSEGWKDAGYEYLCIDDCWMAPQRDSEGRLQADPQRFPHGIRQLANYVHSKGLKLGIYADVGNKTCAGFPGSFGYYDIDAQTFADWGVDLLKFDGCYCDSLENLADGYKHMSLALNRTGRSIVYSCEWPLYMWPFQKPNYTEIRQYCNHWRNFADIDDSWASIKSILDWTSRNQERIVDVAGPGGWNDPDMLVIGNFGLSWDQQVTQMALWAIMAAPLFMSNDLRHISPQAKALLQDKDVIAINQDPLGKQGYQLRQGDNFEVWERPLSGLAWAVAMINRQEIGGPRSYTIPVASLGKGVACNPACFITQLLPVKRKLGFYEWTSRLRSHINPTGTVLLQLENTMQMSLKDLL | ++ (++ = 1.5 to 2.5 relative activity over Rd2BB (SEQ ID NO: 10)) | ++ (++ = 1.5 to 2.5 relative activity over Rd2BB (SEQ ID NO: 10)) | ++ (++ = 1.5 to 2.5 relative activity over Rd2BB (SEQ ID NO: 10)) | ++ (++ = 1.5 to 2.5 relative activity over Rd2BB (SEQ ID NO: 10)) |
| 277 (protein, Synthetic Polypeptide sequence of Variant No. 277 of mature Human GLA) LDNGLARTPTMGWLHWERFMCNLDCQEEPDSCISEKLFMEMAERMVSEGWKDAGYEYLCIDDCWMAPQRDSEGRLQADPQRFPHGIRQLANYVHSKGLKLGIYADVGNKTCAGFPGSFGYYDIDAQTFADWGVDLLKFDGCYCDSLENLADGYKHMSLALNRTGRSIVYSCEWPLYMWPFQKPNYTEIRQYCNHWRNFADIDDSWASIKSILDWTSRNQERIVDVAGPGGWNDPDMLVIGNFGLSWDQQVTQMALWAIMAAPLFMSNDLRHISPQAKALLQDKDVIAINQDPLGKQGYQLRQGDNFEVWERPLSGDAWAVAMINRQEIGGPRSYTIPVASLGKGVACNPACFITQLLPVKRKLGFYDWDSRLRSHINPTGTVLLQLENTMQMSLKDLL | +++ (+++ = >2.5 relative activity over Rd2BB (SEQ ID NO: 10)) | +++ (+++ = >2.5 relative activity over Rd2BB (SEQ ID NO: 10)) | +++ (+++ = >2.5 relative activity over Rd2BB (SEQ ID NO: 10)) | +++ (+++ = >2.5 relative activity over Rd2BB (SEQ ID NO: 10)) |
| 281 (protein, Synthetic Polypeptide sequence of Variant No. 281 of mature Human GLA) LDNGLARTPTMGWLHWERFMCNLDCQEEPDSCISEKLFMEMAERMVSEGWKDAGYEYLCIDDCWMAPQRDSEGRLQADPQRFPHGIRQLANYVHSKGLKLGIYADVGNKTCAGFPGSFGYYDIDAQTFADWGVDLLKFDGCYCDSLENLADGYKHMSLALNRTGRSIVYSCEWPLYMWPFQKPNYTEIRQYCNHWRNFADIDDSWASVKSILDWTSFNQEKIVDVAGPGGWNDPDMLVIGNFGLSWNQQVTQMALWAIMAAPLFMSNDLRHISPQAKALLQDKDVIAINQDPLGKQGYQLRQGDNFEVWERPLSGLAWAVAVINRQEIGGPRSYTIAVASLGDGVACNPACFITQLLPVKRKLGLYEWTSRLKSHINPTGTVLLQLENTMQMSLKDLL | + (+ = 0.5 to 1.5 relative activity over Rd2BB (SEQ ID NO: 10)) | + (+ = 0.5 to 1.5 relative activity over Rd2BB (SEQ ID NO: 10)) | + (+ = 0.5 to 1.5 relative activity over Rd2BB (SEQ ID NO: 10)) | + (+ = 0.5 to 1.5 relative activity over Rd2BB (SEQ ID NO: 10)) |
| 280 (protein, Synthetic Polypeptide sequence of Variant No. 280 of mature Human GLA) LDNGLARTPTMGWLHWERFMCNLDCQEEPDSCISEKLFMEMAERMVSEGWKDAGYEYLCIDDCWMAPQRDSEGRLQADPQRFPHGIRQLANYVHSKGLKLGIYADVGNKTCAGFPGSFGYYDIDAQTFADWGVDLLKFDGCYCDSLENLADGYKHMSLALNRTGRSIVYSCEWPLYMWPFQKPNYTEIRQYCNHWRNFADIDDSWASIKSILDWTSRNQERIVDVAGPGGWNDPDMLVIGNFGLSWNQQVTQMALWAIMAAPLFMSNDLRHISPQAKALLQDKDVIAINQDPLGKQGYQLRKGDNFEVWERPLSGLAWAVAMINRQEIGGPRSYTIAVASLGKGVACNPACFITQLLPVKRKLGFYDWDSRLRSHINPTGTVLLQLENTMQMSLKDLL | + (+ = 0.5 to 1.5 relative activity over Rd2BB (SEQ ID NO: 10)) | + (+ = 0.5 to 1.5 relative activity over Rd2BB (SEQ ID NO: 10)) | + (+ = 0.5 to 1.5 relative activity over Rd2BB (SEQ ID NO: 10)) | + (+ = 0.5 to 1.5 relative activity over Rd2BB (SEQ ID NO: 10)) |
| 279 (protein, Synthetic Polypeptide sequence of Variant No. 279 of mature Human GLA) LDNGLARTPTMGWLHWERFMCNLDCQEEPDSCISEKLFMEMAERMVSEGWKDAGYEYLCIDDCWMAPQRDSEGRLQADPQRFPHGIRQLANYVHSKGLKLGIYADVGNKTCAGFPGSFGYYDIDAQTFADWGVDLLKFDGCYCDSLENLADGYKHMSLALNRTGRSIVYSCEWPLYMWPFQKPNYTEIRQYCNHWRNFADIDDSWASIKSILDWTSRNQERIVDVAGPGGWNDPDMLVIGNFGLSWDQQVTQMALWAIMAAPLFMSNDLRHISPQAKALLQDKDVIAINQDPLGKQGYQLRKGDNFEVWERPLSGLAWAVAMINRQEIGGPRSYTIAVASLGKGVACNPGCFITQLLPVKRKLGFYEWTSRLRSHINPTGTVLLQLENTMQMSLKDLL | +++ (+++ = >2.5 relative activity over Rd2BB (SEQ ID NO: 10)) | ++ (++ = 1.5 to 2.5 relative activity over Rd2BB (SEQ ID NO: 10)) | +++ (+++ = >2.5 relative activity over Rd2BB (SEQ ID NO: 10)) | +++ (+++ = >2.5 relative activity over Rd2BB (SEQ ID NO: 10)) |
| 276 (protein, Synthetic Polypeptide sequence of Variant No. 276 of mature Human GLA) LDNGLARTPTMGWLHWERFMCNLDCQEEPDSCISEKLFMEMAERMVSEGWKDAGYEYLCIDDCWMAPQRDSEGRLQADPQRFPHGIRQLANYVHSKGLKLGIYADVGNKTCAGFPGSFGYYDIDAQTFADWGVDLLKFDGCYCDSLENLADGYKHMSLALNRTGRSIVYSCEWPLYMWPFQKPNYTEIRQYCNHWRNFADIDDSWASIKSILDWTSRNQERIVDVAGPGGWNDPDMLVIGNFGLSWDQQVTQMALWAIMAAPLFMSNDLRHISPQAKALLQDKDVIAINQDPLGKQGYQLRQGDNFEVWERPLSGDAWAVAMINRQEIGGPRSYTIPVASLGKGVACNPGCFITQLLPVKRKLGFYDWDSRLRSHINPTGTVLLQLENTMQMSLKDLL | +++ (+++ = >2.5 relative activity over Rd2BB (SEQ ID NO: 10)) | +++ (+++ = >2.5 relative activity over Rd2BB (SEQ ID NO: 10)) | +++ (+++ = >2.5 relative activity over Rd2BB (SEQ ID NO: 10)) | +++ (+++ = >2.5 relative activity over Rd2BB (SEQ ID NO: 10)) |
| 278 (protein, Synthetic Polypeptide sequence of Variant No. 278 of mature Human GLA) LDNGLARTPTMGWLHWERFMCNLDCQEEPDSCISEKLFMEMAERMVSEGWKDAGYEYLCIDDCWMAPQRDSEGRLQADPQRFPHGIRQLANYVHSKGLKLGIYADVGNKTCAGFPGSFGYYDIDAQTFADWGVDLLKFDGCYCDSLENLADGYKHMSLALNRTGRSIVYSCEWPLYMWPFQKPNYTEIRQYCNHWRNFADIDDSWASIKSILDWTSRNQERIVDVAGPGGWNDPDMLVIGNFGLSWDQQVTQMALWAIMAAPLFMSNDLRHISPQAKALLQDKDVIAINQDPLGKQGYQLRQGDNFEVWERPLSGDAWAVAMINRQEIGGPRSYTIAVASLGKGVACNPGCFITQLLPVKRKLGFYDWDSRLRSHINPTGTVLLQLENTMQMSLKDLL | +++ (+++ = >2.5 relative activity over Rd2BB (SEQ ID NO: 10)) | +++ (+++ = >2.5 relative activity over Rd2BB (SEQ ID NO: 10)) | +++ (+++ = >2.5 relative activity over Rd2BB (SEQ ID NO: 10)) | +++ (+++ = >2.5 relative activity over Rd2BB (SEQ ID NO: 10)) |
